This passage reports IRF7/6D-induced IFN-β promoter luciferase activity in HEK293T; gD-EYFP and Viperin-Flag together against gD or viperin alone results from paper PMC6917645.

For this test, the target named is Viperin-Flag (UniProt Q8WXG1).
Chain of UniProt Q8WXG1 (Q8WXG1 whole entry): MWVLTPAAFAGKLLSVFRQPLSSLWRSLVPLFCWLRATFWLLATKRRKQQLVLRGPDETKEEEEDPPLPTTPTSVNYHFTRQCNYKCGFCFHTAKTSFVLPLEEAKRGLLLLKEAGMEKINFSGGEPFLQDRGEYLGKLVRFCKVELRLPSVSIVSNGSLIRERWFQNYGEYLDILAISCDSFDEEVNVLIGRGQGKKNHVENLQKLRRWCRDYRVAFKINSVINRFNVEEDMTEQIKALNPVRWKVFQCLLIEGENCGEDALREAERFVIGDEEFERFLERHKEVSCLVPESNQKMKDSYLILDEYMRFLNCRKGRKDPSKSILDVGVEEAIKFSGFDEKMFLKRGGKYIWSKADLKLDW

“gD-EYFP (from UniProt Q69091 26-394) (natural protein)” displayed an IRF7/6D-induced IFN-β promoter luciferase activity in HEK293T; gD-EYFP and Viperin-Flag together against gD or viperin alone of 2 fold.
